Like-named read-outs stand apart in the source and are kept apart here.

This is an account of results in article PMC5808563.

Assay [1] addresses integrin β3 transmembrane-cytoplasmic domain (TM/tail, residues 685-762) embedded in Nanodiscs (UniProt P05106). Put plainly: FRET or BRET.
The target is the same in assay [2]. Put plainly: FRET or BRET. This is another data set of the same source.

Sequence of UniProt P05106 (P05106 711-788): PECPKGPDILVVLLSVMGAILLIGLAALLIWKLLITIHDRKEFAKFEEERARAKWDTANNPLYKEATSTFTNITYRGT

“talin-1 head domain (THD) I398C, Uniblue A labelled (from UniProt P26039 1-433) (domain or fragment)” displayed a Kd in assay [1] of 0.58 µM. In assay [2], this substance yielded a Kd of 0.74 µM and a fold increase in affinity over 50% DMPS Nanodiscs without the integrin tail of 2 fold.
